Consider 1 molecule from article PMC11109247.

Assay [1] addresses T1, sF ectodomain (Nipah henipavirus), Q9IH63.
T1 chain: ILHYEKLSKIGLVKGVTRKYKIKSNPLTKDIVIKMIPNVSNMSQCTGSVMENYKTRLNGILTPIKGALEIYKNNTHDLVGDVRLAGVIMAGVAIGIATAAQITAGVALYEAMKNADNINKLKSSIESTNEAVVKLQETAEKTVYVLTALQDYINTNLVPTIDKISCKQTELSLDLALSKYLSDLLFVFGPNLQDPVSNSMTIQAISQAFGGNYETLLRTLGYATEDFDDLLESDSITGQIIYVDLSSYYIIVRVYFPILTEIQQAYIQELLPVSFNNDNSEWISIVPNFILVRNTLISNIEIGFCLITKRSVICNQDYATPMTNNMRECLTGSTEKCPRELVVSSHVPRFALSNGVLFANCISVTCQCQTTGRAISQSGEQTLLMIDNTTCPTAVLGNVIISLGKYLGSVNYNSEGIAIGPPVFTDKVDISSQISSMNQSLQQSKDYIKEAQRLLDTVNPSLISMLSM
Briefly: BLI. The note with it: modification not given.

In assay [2] the target is T1, sF ectodomain (Nipah henipavirus), …. Briefly: MST. The note with it: modification not given.

B1: P-59 peptide peptide P-59, Q9IH62 (peptide)
chain: HECNISCPNPLPFREYRPQTEGV
What is called Kd is the equilibrium constant for the complex coming apart. Take B1: the results for the Kd in assay [1] and in assay [2] were 0.19 µM and 5 µM, respectively.
